Source: patent US20240117018A1

What was measured:
Assay in all cases: cell-based or functional assay
[1] = molecular target: HIV-1 Env of pseudovirus Ce1086_B2 (HIV-1)
[2] = molecular target: HIV-1 Env of pseudovirus THRO4156.18 (HIV-1)
[3] = molecular target: HIV-1 Env of pseudovirus MS208.A1 (HIV-1)
[4] = molecular target: HIV-1 Env of pseudovirus ZM109F.PB4 (HIV-1)
[5] = molecular target: HIV-1 Env of pseudovirus 263-8 (HIV-1)
[6] = molecular target: HIV-1 Env of pseudovirus Ce703010054_2A2 (HIV-1)
[7] = molecular target: HIV-1 Env of pseudovirus A07412M1.vrc12 (HIV-1)
[8] = molecular target: HIV-1 Env of pseudovirus Ce1176_A3 (HIV-1)
[9] = molecular target: HIV-1 Env of pseudovirus ZM197M.PB7 (HIV-1)
[10] = molecular target: HIV-1 Env of pseudovirus CAP210.2.00.E8 (HIV-1)
[11] = molecular target: HIV-1 Env of pseudovirus CNE21 (HIV-1)
[12] = molecular target: HIV-1 Env of pseudovirus Q842.d12 (HIV-1)
[13] = molecular target: HIV-1 Env of pseudovirus BJOX010000.06.2 (HIV-1)
[14] = molecular target: HIV-1 Env of pseudovirus SC05_8C11_2344 (HIV-1)
[15] = molecular target: HIV-1 Env of pseudovirus QH0692.42 (HIV-1)
[16] = molecular target: HIV-1 Env of pseudovirus Du422.1 (HIV-1)
[17] = molecular target: HIV-1 Env of pseudovirus X2088_c9 (HIV-1)
[18] = molecular target: HIV-1 Env of pseudovirus CAP45.2.00.G3 (HIV-1)
[19] = molecular target: HIV-1 Env of pseudovirus 1054_07_TC4_1499 (HIV-1)
[20] = molecular target: HIV-1 Env of pseudovirus T278-50 (HIV-1)
[21] = molecular target: HIV-1 Env of pseudovirus PVO.4 (HIV-1)
[22] = molecular target: HIV-1 Env of pseudovirus CNE52 (HIV-1)
[23] = molecular target: HIV-1 Env of pseudovirus 6244_13_B5_4576 (HIV-1)
[24] = molecular target: HIV-1 Env of pseudovirus CAAN5342.A2 (HIV-1)
[25] = molecular target: HIV-1 Env of pseudovirus BF1266.431a (HIV-1)
[26] = molecular target: HIV-1 Env of pseudovirus Ce1172_H1 (HIV-1)
[27] = molecular target: HIV-1 Env of pseudovirus CNE58 (HIV-1)
[28] = molecular target: HIV-1 Env of pseudovirus P0402_c2_11 (HIV-1)
[29] = molecular target: HIV-1 Env of pseudovirus R3265.c06 (HIV-1)
[30] = molecular target: HIV-1 Env of pseudovirus 0815.v3.c3 (HIV-1)
[31] = molecular target: HIV-1 Env of pseudovirus Ce0393_C3 (HIV-1)
[32] = molecular target: HIV-1 Env of pseudovirus X1254_c3 (HIV-1)
[33] = molecular target: HIV-1 Env of pseudovirus 246F C1G (HIV-1)
[34] = molecular target: HIV-1 Env of pseudovirus Ce704809221_1B3 (HIV-1)
[35] = molecular target: HIV-1 Env of pseudovirus CNE19 (HIV-1)

PGT145 (antibody) was tested, and the neutralization IC50 [1] was greater than 50 µg/mL, the neutralization IC80 [1] was greater than 50 µg/mL and the neutralization IC50 [2] was 0.01 µg/mL. It also gave a neutralization IC80 [2] of 0.029 µg/mL, a neutralization IC50 [3] of 0.334 µg/mL and a neutralization IC80 [3] of 18 µg/mL. The neutralization IC50 [4] was 0.042 µg/mL, the neutralization IC80 [4] was 0.234 µg/mL and the neutralization IC50 [5] was 32.1 µg/mL. It also gave a neutralization IC80 [5] greater than 50 µg/mL, a neutralization IC50 [6] greater than 50 µg/mL and a neutralization IC80 [6] greater than 50 µg/mL. For the same substance, the IC50 (Titer in TZM.bl cells) [7] was 0.002 µg/mL, the IC80 (Titer in TZM.bl cells) [7] was 0.023 µg/mL and the neutralization IC50 [8] was greater than 50 µg/mL. It also gave a neutralization IC80 [8] greater than 50 µg/mL, a neutralization IC50 [9] of 0.628 µg/mL and a neutralization IC80 [9] of 5.24 µg/mL. For the same substance, the neutralization IC50 [10] was 37.8 µg/mL, the neutralization IC80 [10] was greater than 50 µg/mL and the neutralization IC50 [11] was less than 0.001 µg/mL. The neutralization IC80 [11] was 0.009 µg/mL, the neutralization IC50 [12] was 0.032 µg/mL and the neutralization IC80 [12] was 0.552 µg/mL. It also gave an IC50 (Titer in TZM.bl cells) [13] greater than 50 µg/mL, an IC80 (Titer in TZM.bl cells) [13] greater than 50 µg/mL and a neutralization IC50 [14] of 0.093 µg/mL. The neutralization IC80 [14] was 0.248 µg/mL, the neutralization IC50 [15] was greater than 50 µg/mL and the neutralization IC80 [15] was greater than 50 µg/mL. For the same substance, the neutralization IC50 [16] was 22.6 µg/mL, the neutralization IC80 [16] was greater than 50 µg/mL and the IC50 (Titer in TZM.bl cells) [17] was greater than 50 µg/mL. The IC80 (Titer in TZM.bl cells) [17] was greater than 50 µg/mL, the neutralization IC50 [18] was 0.001 µg/mL and the neutralization IC80 [18] was 0.007 µg/mL. For the same substance, the neutralization IC50 [19] was greater than 50 µg/mL, the neutralization IC80 [19] was greater than 50 µg/mL and the IC50 (Titer in TZM.bl cells) [20] was 10.3 µg/mL. It also gave an IC80 (Titer in TZM.bl cells) [20] greater than 50 µg/mL, a neutralization IC50 [21] of 0.192 µg/mL and a neutralization IC80 [21] of 0.87 µg/mL. For the same substance, the neutralization IC50 [22] was 0.02 µg/mL, the neutralization IC80 [22] was 0.091 µg/mL and the neutralization IC50 [23] was 7.27 µg/mL. The neutralization IC80 [23] was 44.5 µg/mL, the neutralization IC50 [24] was 6.67 µg/mL and the neutralization IC80 [24] was 25.5 µg/mL. It also gave a neutralization IC50 [25] of 1.34 µg/mL, a neutralization IC80 [25] of 18.5 µg/mL and a neutralization IC50 [26] of 0.26 µg/mL. For the same substance, the neutralization IC80 [26] was 2.06 µg/mL, the neutralization IC50 [27] was 0.183 µg/mL and the neutralization IC80 [27] was 7.41 µg/mL. For the same substance, the IC50 (Titer in TZM.bl cells) [28] was 0.009 µg/mL, the IC80 (Titer in TZM.bl cells) [28] was 0.038 µg/mL and the IC50 (Titer in TZM.bl cells) [29] was 0.037 µg/mL. It also gave an IC80 (Titer in TZM.bl cells) [29] of 0.227 µg/mL, an IC50 (Titer in TZM.bl cells) [30] greater than 50 µg/mL and an IC80 (Titer in TZM.bl cells) [30] greater than 50 µg/mL. The neutralization IC50 [31] was 0.112 µg/mL, the neutralization IC80 [31] was 1.23 µg/mL and the IC50 (Titer in TZM.bl cells) [32] was 5.6 µg/mL. The IC80 (Titer in TZM.bl cells) [32] was greater than 50 µg/mL, the neutralization IC50 [33] was greater than 50 µg/mL and the neutralization IC80 [33] was greater than 50 µg/mL. For the same substance, the neutralization IC50 [34] was 0.102 µg/mL, the neutralization IC80 [34] was 0.71 µg/mL and the neutralization IC50 [35] was 0.103 µg/mL. The neutralization IC80 [35] was 1.13 µg/mL.

In the case of PGT151 (antibody), the neutralization IC50 [1] is reported as 2.65 µg/mL, the neutralization IC80 [1] is reported as greater than 50 µg/mL and the neutralization IC50 [2] is reported as greater than 50 µg/mL. It also gave a neutralization IC80 [2] greater than 50 µg/mL, a neutralization IC50 [3] of less than 0.001 µg/mL and a neutralization IC80 [3] of 0.003 µg/mL. It also gave a neutralization IC50 [4] of 0.609 µg/mL, a neutralization IC80 [4] greater than 50 µg/mL and a neutralization IC50 [5] greater than 50 µg/mL. It also gave a neutralization IC80 [5] greater than 50 µg/mL, a neutralization IC50 [6] of 0.013 µg/mL and a neutralization IC80 [6] of 0.075 µg/mL. For the same substance, the IC50 (Titer in TZM.bl cells) [7] was 0.246 µg/mL, the IC80 (Titer in TZM.bl cells) [7] was greater than 50 µg/mL and the neutralization IC50 [8] was 0.006 µg/mL. For the same substance, the neutralization IC80 [8] was 0.018 µg/mL, the neutralization IC50 [9] was 0.003 µg/mL and the neutralization IC80 [9] was 0.033 µg/mL. The neutralization IC50 [10] was 0.01 µg/mL, the neutralization IC80 [10] was 0.208 µg/mL and the neutralization IC50 [11] was 0.004 µg/mL. It also gave a neutralization IC80 [11] of 0.012 µg/mL, a neutralization IC50 [12] of 0.001 µg/mL and a neutralization IC80 [12] of 0.014 µg/mL. For the same substance, the IC50 (Titer in TZM.bl cells) [13] was greater than 50 µg/mL, the IC80 (Titer in TZM.bl cells) [13] was greater than 50 µg/mL and the neutralization IC50 [14] was 0.06 µg/mL. For the same substance, the neutralization IC80 [14] was greater than 50 µg/mL, the neutralization IC50 [15] was 0.029 µg/mL and the neutralization IC80 [15] was 0.522 µg/mL. It also gave a neutralization IC50 [16] of 4.6 µg/mL, a neutralization IC80 [16] greater than 50 µg/mL and an IC50 (Titer in TZM.bl cells) [17] greater than 50 µg/mL. The IC80 (Titer in TZM.bl cells) [17] was greater than 50 µg/mL, the neutralization IC50 [18] was 0.007 µg/mL and the neutralization IC80 [18] was greater than 50 µg/mL. For the same substance, the neutralization IC50 [19] was 0.008 µg/mL, the neutralization IC80 [19] was 0.032 µg/mL and the IC50 (Titer in TZM.bl cells) [20] was 0.13 µg/mL. The IC80 (Titer in TZM.bl cells) [20] was greater than 50 µg/mL, the neutralization IC50 [21] was 0.017 µg/mL and the neutralization IC80 [21] was greater than 50 µg/mL. It also gave a neutralization IC50 [22] of 0.004 µg/mL, a neutralization IC80 [22] of 0.017 µg/mL and a neutralization IC50 [23] greater than 50 µg/mL. For the same substance, the neutralization IC80 [23] was greater than 50 µg/mL, the neutralization IC50 [24] was 0.005 µg/mL and the neutralization IC80 [24] was 0.038 µg/mL. It also gave a neutralization IC50 [25] greater than 50 µg/mL, a neutralization IC80 [25] greater than 50 µg/mL and a neutralization IC50 [26] greater than 50 µg/mL. For the same substance, the neutralization IC80 [26] was greater than 50 µg/mL, the neutralization IC50 [27] was 0.004 µg/mL and the neutralization IC80 [27] was 0.016 µg/mL. The IC50 (Titer in TZM.bl cells) [28] was less than 0.001 µg/mL, the IC80 (Titer in TZM.bl cells) [28] was 0.004 µg/mL and the IC50 (Titer in TZM.bl cells) [29] was greater than 50 µg/mL. The IC80 (Titer in TZM.bl cells) [29] was greater than 50 µg/mL, the IC50 (Titer in TZM.bl cells) [30] was greater than 50 µg/mL and the IC80 (Titer in TZM.bl cells) [30] was greater than 50 µg/mL. The neutralization IC50 [31] was greater than 50 µg/mL, the neutralization IC80 [31] was greater than 50 µg/mL and the IC50 (Titer in TZM.bl cells) [32] was 0.309 µg/mL. It also gave an IC80 (Titer in TZM.bl cells) [32] greater than 50 µg/mL, a neutralization IC50 [33] greater than 50 µg/mL and a neutralization IC80 [33] greater than 50 µg/mL. It also gave a neutralization IC50 [34] greater than 50 µg/mL, a neutralization IC80 [34] greater than 50 µg/mL and a neutralization IC50 [35] of 0.014 µg/mL. It also gave a neutralization IC80 [35] greater than 50 µg/mL.
